Data from article PMC5749160, “Disruption of an RNA-binding hinge region abolishes LHP1-mediated epigenetic repression”.

Biological target: T1, GST-LHP1 (Arabidopsis thaliana (Col-0 cDNA), UniProt Q946J8 1-445)
T1 sequence: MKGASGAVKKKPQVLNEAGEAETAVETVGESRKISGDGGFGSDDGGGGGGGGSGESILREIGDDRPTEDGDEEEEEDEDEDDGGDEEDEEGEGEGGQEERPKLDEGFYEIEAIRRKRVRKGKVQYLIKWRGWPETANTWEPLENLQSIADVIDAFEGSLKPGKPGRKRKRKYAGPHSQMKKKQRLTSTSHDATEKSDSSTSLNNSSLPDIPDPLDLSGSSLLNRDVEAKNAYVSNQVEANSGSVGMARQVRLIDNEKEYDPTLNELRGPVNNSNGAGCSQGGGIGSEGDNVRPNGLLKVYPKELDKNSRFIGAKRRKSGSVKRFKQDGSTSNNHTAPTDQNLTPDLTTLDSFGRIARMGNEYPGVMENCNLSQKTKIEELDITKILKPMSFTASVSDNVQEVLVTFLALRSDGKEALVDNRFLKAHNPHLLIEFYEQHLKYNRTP
Assay: EMSA; EMSA: 20 mM HEPES-KOH pH 7.5, 100 mM KCl, 0.05% NP-40, 10 nM Cy5 probe (1 uL of 100 nM + 9 uL protein), 30 min room temperature; 1.6% TBE-agarose gel
Settings: protein: recombinant; tags: N-terminal GST (pGEX-4T-1); label: 5' Cy5; single-stranded

B1: FLC 40-nt ssRNA (ssRNA)
RNA: CUCCUCCGGCGAUAAGUACGCCUUUUCCUUACCUGGGUUU
Kd: ~200 nM
